Blank lines part the entries; values can stand above or below the binder they belong to.
Biological target: HLA-A*02-presented PRAME-004 (SEQ ID NO:97)
Assay: cell-based or functional assay

EC50 of IFNγ release from CD8+ T-cells with the TCR, T2 target cells loaded with PRAME-004 from 10 µM to 10 pM: ~1 µM
B1: TCR R16P1E8 (TCR, V domains shown)
V domain 1: QKEVEQDPGPLSVPEGAIVSLNCTYSNSAFQYFMWYRQYSRKGPELLMYTYSSGNKEDGRFTAQVDKSSKYISLFIRDSQPSDSATYLCAMSEAAGNKLTFGGGTRVLVKP
V domain 2: EAGVAQSPRYKIIEKRQSVAFWCNPISGHATLYWYQQILGQGPKLLIQFQNNGVVDDSQLPKDRFSAERLKGVDSTLKIQPAKLEDSAVYLCASSYTNQGEAFFGQGTRLTVVE

EC50 of IFNγ release from CD8+ T-cells with the TCR, T2 target cells loaded with PRAME-004 from 10 µM to 10 pM: 1.83 nM
B2: TCR R17P1D7 (TCR, V domains shown)
V domain 1: QTVTQSQPEMSVQEAETVTLSCTYDTSESDYYLFWYKQPPSRQMILVIRQEAYKQQNATENRFSVNFQKAAKSFSLKISDSQLGDAAMYFCAYRWAQGGSEKLVFGKGTKLTVNP
V domain 2: DIYQTPRYLVIGTGKKITLECSQTMGHDKMYWYQQDPGMELHLIHYSYGVNSTEKGDLSSESTVSRIRTEHFPLTLESARPSHTSQYLCATELWSSGGTGELFFGEGSRLTVLE

Source: patent US20200123221A1 (IMMATICS BIOTECHNOLOGIES, published 2020)
